Measured values taken from patent publication US20110263454A1, “Methods of Identifying Functional Characteristics of Promoters, Transcription Modifying Proteins and Transcription Modulating Agents” (Salk Institute for Biological Studies, priority 2008, published 2011).

B1: Erb: Estrogen Receptor β (NR3A2, ERb), cDNA driver (protein, UniProt Q92731 1-530, looked up)
Estrogen receptor beta: MDIKNSPSSLNSPSSYNCSQSILPLEHGSIYIPSSYVDSHHEYPAMTFYSPAVMNYSIPSNVTNLEGGPGRQTTSPNVLWPTPGHLSPLVVHRQLSHLYAEPQKSPWCEARSLEHTLPVNRETLKRKVSGNRCASPVTGPGSKRDAHFCAVCSDYASGYHYGVWSCEGCKAFFKRSIQGHNDYICPATNQCTIDKNRRKSCQACRLRKCYEVGMVKCGSRRERCGYRLVRRQRSADEQLHCAGKAKRSGGHAPRVRELLLDALSPEQLVLTLLEAEPPHVLISRPSAPFTEASMMMSLTKLADKELVHMISWAKKIPGFVELSLFDQVRLLESCWMEVLMMGLMWRSIDHPGKLIFAPDLVLDRDEGKCVEGILEIFDMLLATTSRFRELKLQHKEYLCVKAMILLNSSMYPLVTATQDADSSRKLAHLLNAVTDALVWVIAKSGISSQQQSMRLANLLMLLSHVRHASNKGMEHLLNMKCKNVVPVYDLLLEMLNAHVLRGCKSSITGSECSPAEDSKSKEGSQNPQSQ
B2: ERR2: Estrogen Related Receptor β (NR3B2, ERRb), cDNA driver (protein, UniProt O95718 1-433, looked up)
Steroid hormone receptor ERR2: MSSDDRHLGSSCGSFIKTEPSSPSSGIDALSHHSPSGSSDASGGFGLALGTHANGLDSPPMFAGAGLGGTPCRKSYEDCASGIMEDSAIKCEYMLNAIPKRLCLVCGDIASGYHYGVASCEACKAFFKRTIQGNIEYSCPATNECEITKRRRKSCQACRFMKCLKVGMLKEGVRLDRVRGGRQKYKRRLDSESSPYLSLQISPPAKKPLTKIVSYLLVAEPDKLYAMPPPGMPEGDIKALTTLCDLADRELVVIIGWAKHIPGFSSLSLGDQMSLLQSAWMEILILGIVYRSLPYDDKLVYAEDYIMDEEHSRLAGLLELYRAILQLVRRYKKLKVEKEEFVTLKALALANSDSMYIEDLEAVQKLQDLLHEALQDYELSQRHEEPWRTGKLLLTLPLLRQTAAKAVQHFYSVKLQGKVPMHKLFLEMLEAKV
B3: TR4: Testicular Orphan Nuclear Receptor 4 (NR2C2), cDNA driver (protein, UniProt P49116 1-596, looked up)
Nuclear receptor subfamily 2 …: MTSPSPRIQIISTDSAVASPQRIQIVTDQQTGQKIQIVTAVDASGSPKQQFILTSPDGAGTGKVILASPETSSAKQLIFTTSDNLVPGRIQIVTDSASVERLLGKTDVQRPQVVEYCVVCGDKASGRHYGAVSCEGCKGFFKRSVRKNLTYSCRSNQDCIINKHHRNRCQFCRLKKCLEMGMKMESVQSERKPFDVQREKPSNCAASTEKIYIRKDLRSPLIATPTFVADKDGARQTGLLDPGMLVNIQQPLIREDGTVLLATDSKAETSQGALGTLANVVTSLANLSESLNNGDTSEIQPEDQSASEITRAFDTLAKALNTTDSSSSPSLADGIDTSGGGSIHVISRDQSTPIIEVEGPLLSDTHVTFKLTMPSPMPEYLNVHYICESASRLLFLSMHWARSIPAFQALGQDCNTSLVRACWNELFTLGLAQCAQVMSLSTILAAIVNHLQNSIQEDKLSGDRIKQVMEHIWKLQEFCNSMAKLDIDGYEYAYLKAIVLFSPDHPGLTSTSQIEKFQEKAQMELQDYVQKTYSEDTYRLARILVRLPALRLMSSNITEELFFTGLIGNVSIDSIIPYILKMETAEYNGQITGASL
B4: CTF2: COUP-TF2 (NR2F2), cDNA driver (protein, UniProt P24468 1-414, looked up)
COUP transcription factor 2: MAMVVSTWRDPQDEVPGSQGSQASQAPPVPGPPPGAPHTPQTPGQGGPASTPAQTAAGGQGGPGGPGSDKQQQQQHIECVVCGDKSSGKHYGQFTCEGCKSFFKRSVRRNLSYTCRANRNCPIDQHHRNQCQYCRLKKCLKVGMRREAVQRGRMPPTQPTHGQFALTNGDPLNCHSYLSGYISLLLRAEPYPTSRFGSQCMQPNNIMGIENICELAARMLFSAVEWARNIPFFPDLQITDQVALLRLTWSELFVLNAAQCSMPLHVAPLLAAAGLHASPMSADRVVAFMDHIRIFQEQVEKLKALHVDSAEYSCLKAIVLFTSDACGLSDVAHVESLQEKSQCALEEYVRSQYPNQPTRFGKLLLRLPSLRTVSSSVIEQLFFVRLVGKTPIETLIRDMLLSGSSFNWPYMAIQ
B5: ERR3: Estrogen Related Receptor γ (NR3B3, ERRg), cDNA driver (protein, UniProt P62508 1-458, looked up)
Estrogen-related receptor …: MDSVELCLPESFSLHYEEELLCRMSNKDRHIDSSCSSFIKTEPSSPASLTDSVNHHSPGGSSDASGSYSSTMNGHQNGLDSPPLYPSAPILGGSGPVRKLYDDCSSTIVEDPQTKCEYMLNSMPKRLCLVCGDIASGYHYGVASCEACKAFFKRTIQGNIEYSCPATNECEITKRRRKSCQACRFMKCLKVGMLKEGVRLDRVRGGRQKYKRRIDAENSPYLNPQLVQPAKKPYNKIVSHLLVAEPEKIYAMPDPTVPDSDIKALTTLCDLADRELVVIIGWAKHIPGFSTLSLADQMSLLQSAWMEILILGVVYRSLSFEDELVYADDYIMDEDQSKLAGLLDLNNAILQLVKKYKSMKLEKEEFVTLKAIALANSDSMHIEDVEAVQKLQDVLHEALQDYEAGQHMEDPRRAGKMLMTLPLLRQTSTKAVQHFYNIKLEGKVPMHKLFLEMLEAKV
B6: CTF1: COUP-TF1 (NR2F1), cDNA driver (protein, UniProt P10589 1-423, looked up)
COUP transcription factor 1: MAMVVSSWRDPQDDVAGGNPGGPNPAAQAARGGGGGAGEQQQQAGSGAPHTPQTPGQPGAPATPGTAGDKGQGPPGSGQSQQHIECVVCGDKSSGKHYGQFTCEGCKSFFKRSVRRNLTYTCRANRNCPIDQHHRNQCQYCRLKKCLKVGMRREAVQRGRMPPTQPNPGQYALTNGDPLNGHCYLSGYISLLLRAEPYPTSRYGSQCMQPNNIMGIENICELAARLLFSAVEWARNIPFFPDLQITDQVSLLRLTWSELFVLNAAQCSMPLHVAPLLAAAGLHASPMSADRVVAFMDHIRIFQEQVEKLKALHVDSAEYSCLKAIVLFTSDACGLSDAAHIESLQEKSQCALEEYVRSQYPNQPSRFGKLLLRLPSLRTVSSSVIEQLFFVRLVGKTPIETLIRDMLLSGSSFNWPYMSIQCS

Test system: SREBP1c promoter
Assay: NHR-promoter luciferase screen, SREBP1c promoter
Type: cell-based, mouse
Details: SREBP1c promoter; HR component without or with ligand
Method in brief: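 Values are luciferase activity normalised to LacZ (transfection control) and to a control lacking NHR or ligand. Read-out at 48 h in CV-1 cells carrying 100 ng promoter-reporter, 50 ng receptor (alone or with RXR) and 50 ng LacZ.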

Row | Molecule | Luc. act., normalized to lacZ | Normalized Luc. act., normalized to control
1 | B1 | 249.2 | 0.8
2 | B2 | 347.9 | 1.1
3 | B3 | 477.6 | 1.5
4 | B4 | 455.6 | 1.4
5 | B5 | 406.7 | 1.3
6 | B6 | 205.9 | 0.6

Same assay, conditions: transcription factor +/- ligand; control = 1.00

Row | Molecule | mSREBP1-c promoter reporter activity
7 | B1 | 0.77
8 | B2 | 1.08
9 | B3 | 1.48
10 | B4 | 1.41
11 | B5 | 1.26
12 | B6 | 0.64

Test system: hIRF7 promoter
Assay: NHR-promoter luciferase screen, hIRF7 promoter
Type: cell-based, human
Details: IRF7 promoter reporter; HR without or with its ligand; relative to control
Method in brief: (§1)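 CV-1 cells were co-transfected with 50 ng NHR (homodimer or NHR/RXR heterodimer), 100 ng promoter-luciferase construct and 50 ng LacZ. Luciferase was normalized to LacZ and to a no-NHR/no-ligand control.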

Row | Molecule | Normalized Luc. act., normalized to control
13 | B1 | 1.4
14 | B2 | 2.3
15 | B3 | 1.9
16 | B4 | 1.0
17 | B5 | 2.1
18 | B6 | 0.9

Same assay, conditions: IRF7 promoter reporter; hormone receptor (HR) without or with its ligand

Row | Molecule | Luc. act., normalized to lacZ
19 | B1 | 37.5
20 | B2 | 60.5
21 | B3 | 48.8
22 | B4 | 25.6
23 | B5 | 55.2
24 | B6 | 24.8

Same assay, conditions: transcription factor +/- ligand; control = 1.00

Row | Molecule | hIRF7 promoter reporter activity
25 | B1 | 1.42
26 | B2 | 2.30
27 | B3 | 1.85
28 | B4 | 0.97
29 | B5 | 2.10
30 | B6 | 0.94

Test system: mUCP1 promoter
Assay: NHR-promoter luciferase screen, mUCP1 promoter
Type: cell-based, mouse
Details: mUCP1 promoter reporter; co-transfected HR, with or without its ligand
Method in brief: as §1

Row | Molecule | Luc. act., normalized to lacZ
31 | B1 | 3.3
32 | B2 | 13.1
33 | B3 | 26.4
34 | B4 | 1.9
35 | B5 | 26.5
36 | B6 | 1.8

Same assay, conditions: mUCP1 promoter reporter; co-transfected HR, with or without its ligand; relative to control

Row | Molecule | Normalized Luc. act., normalized to control
37 | B1 | 0.8
38 | B2 | 3.0
39 | B3 | 5.9
40 | B4 | 0.4
41 | B5 | 6.0
42 | B6 | 0.4

Same assay, conditions: mUCP! promoter-luciferase, CV-1 cells, NHR +/- ligand, control = 1.00

Row | Molecule | luciferase activity normalized to lacZ activity and to a control, mUCP!
43 | B1 | 0.75
44 | B2 | 2.95
45 | B3 | 5.94
46 | B4 | 0.43
47 | B5 | 5.98
48 | B6 | 0.41

Test system: hIFNg promoter
Assay: NHR-promoter luciferase screen, hIFNg promoter
Type: cell-based, human
Details: IFNg promoter; HR component without or with ligand
Method in brief: as §1

Row | Molecule | Luc. act., normalized to lacZ | Normalized Luc. act., normalized to control
49 | B1 | 22.0 | 1.4
50 | B2 | 58.9 | 3.7
51 | B3 | 42.5 | 2.7
52 | B4 | 35.0 | 2.2
53 | B5 | 27.9 | 1.8
54 | B6 | 31.8 | 2.0

Same assay, conditions: transcription factor +/- ligand; control = 1.00

Row | Molecule | hIFNg promoter reporter activity
55 | B1 | 1.39
56 | B2 | 3.70
57 | B3 | 2.67
58 | B4 | 2.20
59 | B5 | 1.75
60 | B6 | 2.00

Test system: hPOMC promoter
Assay: NHR-promoter luciferase screen, hPOMC promoter
Type: cell-based, human
Details: hPOMC promoter-luciferase, NHR +/- ligand, control = 1.0
Method in brief: as §1

Row | Molecule | luciferase/LacZ, hPOMC (selected results)
61 | B3 | 11.8
62 | B5 | 4.1

Same assay, conditions: hPOMC promoter; HR/ligand component

Row | Molecule | Luc. act., normalized to lacZ | Normalized Luc. act., normalized to control
63 | B1 | 3.2 | 0.7
64 | B2 | 11.6 | 2.7
65 | B3 | 50.7 | 11.8
66 | B4 |  | 0.0
67 | B5 | 17.6 | 4.1
68 | B6 |  | 0.0

Same assay, conditions: transcription factor +/- ligand; control = 1.00

Row | Molecule | hPOMC promoter reporter activity
69 | B1 | 0.74
70 | B2 | 2.70
71 | B3 | 11.80
72 | B4 | 0.00
73 | B5 | 4.09
74 | B6 | 0.00

Test system: mUCP2 promoter
Assay: NHR-promoter luciferase screen, mUCP2 promoter
Type: cell-based, mouse
Details: mUCP2 promoter reporter; co-transfected HR, with or without its ligand
Method in brief: as §1

Row | Molecule | Luc. act., normalized to lacZ
75 | B1 | 114.4
76 | B2 | 185.1
77 | B3 | 199.0
78 | B4 | 90.4
79 | B5 | 193.4
80 | B6 | 67.1

Same assay, conditions: mUCP2 promoter reporter; co-transfected HR, with or without its ligand; relative to control

Row | Molecule | Normalized Luc. act., normalized to control
81 | B1 | 1.0
82 | B2 | 1.7
83 | B3 | 1.8
84 | B4 | 0.8
85 | B5 | 1.8
86 | B6 | 0.6

Same assay, conditions: mUCP2 promoter-luciferase, CV-1 cells, NHR +/- ligand, control = 1.00

Row | Molecule | luciferase activity normalized to lacZ activity and to a control, mUCP2
87 | B1 | 1.04
88 | B2 | 1.68
89 | B3 | 1.81
90 | B4 | 0.82
91 | B5 | 1.76
92 | B6 | 0.61
